Patent publication US20050113256A1, “Methods of reducing the nicotine content of tobacco plants and tobacco plants obtained thereby” (priority 2003, published 2005)

Test system: tobacco leaves (Nicotiana tabacum)
Test: Treatment of individual tobacco leaves with test solutions, nicotine reduction
Assay type: in vivo
Details: incubated for about 3 days

B1: Inactive GOX: heat treated glucose oxidase, rendered substantially inactive due to the application of heat (protein, UniProt P13006 17-605, looked up)
Glucose oxidase: LPHYIRSNGIEASLLTDPKDVSGRTVDYIIAGGGLTGLTTAARLTENPNISVLVIESGSYESDRGPIIEDLNAYGDIFGSSVDHAYETVELATNNQTALIRSGNGLGGSTLVNGGTWTRPHKAQVDSWETVFGNEGWNWDNVAAYSLQAERARAPNAKQIAAGHYFNASCHGVNGTVHAGPRDTGDDYSPIVKALMSAVEDRGVPTKKDFGCGDPHGVSMFPNTLHEDQVRSDAAREWLLPNYQRPNLQVLTGQYVGKVLLSQNGTTPRAVGVEFGTHKGNTHNVYAKHEVLLAAGSAVSPTILEYSGIGMKSILEPLGIDTVVDLPVGLNLQDQTTATVRSRITSAGAGQGQAAWFATFNETFGDYSEKAHELLNTKLEQWAEEAVARGGFHNTTALLIQYENYRDWIVNHNVAYSELFLDTAGVASFDVWDLLPFTRGYVHILDKDPYLHHFAYDPQYFLNELDLLGQAAATQLARNISNSGAMQTYFAGETIPGDNLAYDADLSAWTEYIPYHFRPNYHGVGTCSMMPKEMGGVVDNAARVYGVQGLRVIDGSIPPTQMSSHVMTVFYAMALKISDAILEDYASMQ
modifications: heat-inactivated
Reduction of Nicotine: 0.1 mg/g
